# Measurements reported in patent US20070060518A1 (MANNKIND, published 2007).
# Read-outs that look alike come from different tables or passages of the source. Square brackets hold non-standard residues; d marks the D form. Ends that are not written are not given here. Phe(4-NO2) = N[C@@H](Cc1ccc([N+](=O)[O-])cc1)C(=O)O; Phg = N[C@H](C(=O)O)c1ccccc1; Nle = CCCC[C@H](N)C(=O)O; Nva = CCC[C@H](N)C(=O)O; Abu = CC[C@H](N)C(=O)O
# What was measured:
# HLA-A*0201 on T2 cells [1] = biological target: T1, HLA-A*0201 on T2 cells (human); assay: T2 cell binding assay, flow cytometry
# T1 construct: whole, on cells; also called HLA-A2
# HLA-A*0201 on T2 cells [2] = biological target: T1, HLA-A*0201 on T2 cells; assay: T2 cell stability assay, flow cytometry
# HLA-A*0201 on T2 cells [3] = biological target: T1, HLA-A*0201 on T2 cells; assay: T2 cell stability assay, flow cytometry; remark: listed apart in the source
# HLA-A*0201 on T2 cells [4] = biological target: T1, HLA-A*0201 on T2 cells; assay: T2 cell binding assay, flow cytometry; remark: listed apart in the source
# [5] = biological target: T2, HLA-A*0201 class I monomer on avidin-coated plates (iTopia Epitope Discovery System) (human); assay: iTopia assays (FIG. 19)
# T2 construct: Bought kit (Beckman Coulter); also called A0201 restricted MHC Class 1 molecules; MHC monomer
# Description: (§1) Avidin-coated microtiter plates containing class I monomer loaded with a so-called placeholder peptide were used to evaluate peptide binding, affinity and off-rate. […] Assay buffers, anti-MHC-FITC mAb and beta2-microglobulin and control peptides were also supplied with the kits. Binding Assay:
# This assay measures the ability of individual peptides to bind HLA molecules under standardized optimal binding conditions. Monomer-coated plates were first stripped, releasing the placeholder peptide and leaving only the MHC heavy chain bound to the plate. Test peptides were then introduced under optimal folding conditions, along with the anti-MHC-FITC mAb. […] The anti-MHC-FITC mAb binds preferentially to a refolded MHC complex. Therefore, the fluorescence intensity resulting from each peptide was related to the peptide's ability to form complex with MHC molecule. Each peptide's binding was evaluated relative to the positive control peptide provided in the kit, and the results were expressed “% binding”.
# [6] = biological target: T2, HLA-A*0201 class I monomer on …; assay: iTopia affinity assay (FIG. 19)
# Description: as §1
# HLA-A*0201 on T2 cells [7] = biological target: T1, HLA-A*0201 on T2 cells; assay: T2 cell binding assay, flow cytometry; remark: listed apart in the source
binder,measurement,setting,value
"FVSEKIFYV [SSX2 41-49 (K41F, A42V)]",EC50,HLA-A*0201 on T2 cells [1],4.67 µM
same,Relative affinity (1/RA),HLA-A*0201 on T2 cells [1],3.1
same,Stability (T1/2),HLA-A*0201 on T2 cells [2],24 h
"WVSEKIFYV [SSX2 41-49 (K41W, A42V)]",EC50,HLA-A*0201 on T2 cells [1],4.82 µM
same,Relative affinity (1/RA),HLA-A*0201 on T2 cells [1],3
same,Stability (T1/2),HLA-A*0201 on T2 cells [2],> 24 h
"FVSEKLFTA [SSX2 41-49 (K41F, A42V, I46L, Y48T, V49A)]",Stability (T1/2),HLA-A*0201 on T2 cells [3],12 h
"FVSEKIFFV [SSX2 41-49 (K41F, A42V, Y48F)]",Stability (T1/2),HLA-A*0201 on T2 cells [3],20 h
same,EC50,HLA-A*0201 on T2 cells [4],8.8 µM
same,Relative affinity (1/RA),HLA-A*0201 on T2 cells [4],1.7
"YVSEKIFYV [SSX2 41-49 (K41Y, A42V)]",Stability (T1/2),HLA-A*0201 on T2 cells [2],> 24 h
"FVSEKLFYV [SSX2 41-49 (K41F, A42V, I46L)]",Stability (T1/2),HLA-A*0201 on T2 cells [3],24 h
same,EC50,HLA-A*0201 on T2 cells [4],7.8 µM
same,Relative affinity (1/RA),HLA-A*0201 on T2 cells [4],1.9
"FVSEKIFSV [SSX2 41-49 (K41F, A42V, Y48S)]",Stability (T1/2),HLA-A*0201 on T2 cells [3],20 h
same,EC50,HLA-A*0201 on T2 cells [4],3.8 µM
same,Relative affinity (1/RA),HLA-A*0201 on T2 cells [4],3.9
"FVSEKVFYV [SSX2 41-49 (K41F, A42V, I46V)]",Stability (T1/2),HLA-A*0201 on T2 cells [3],24 h
"FVSQKIFYV [SSX2 41-49 (K41F, A42V, E44Q)]",EC50,HLA-A*0201 on T2 cells [4],40.8 µM
same,Relative affinity (1/RA),HLA-A*0201 on T2 cells [4],0.4
"FISEKIFYV [SSX2 41-49 (K41F, A42I)]",EC50,HLA-A*0201 on T2 cells [1],5.37 µM
same,Relative affinity (1/RA),HLA-A*0201 on T2 cells [1],2.7
same,Stability (T1/2),HLA-A*0201 on T2 cells [2],> 24 h
"YMSEKIFYV [SSX2 41-49 (K41Y, A42M)]",EC50,HLA-A*0201 on T2 cells [1],25 µM
same,Relative affinity (1/RA),HLA-A*0201 on T2 cells [1],0.6
same,Stability (T1/2),HLA-A*0201 on T2 cells [2],> 24 h
"FVSEKIFTV [SSX2 41-49 (K41F, A42V, Y48T)]",Stability (T1/2),HLA-A*0201 on T2 cells [3],24 h
same,EC50,HLA-A*0201 on T2 cells [4],3.9 µM
same,Relative affinity (1/RA),HLA-A*0201 on T2 cells [4],3.8
"WMSEKIFYV [SSX2 41-49 (K41W, A42M)]",EC50,HLA-A*0201 on T2 cells [1],5.13 µM
same,Relative affinity (1/RA),HLA-A*0201 on T2 cells [1],2.9
same,Stability (T1/2),HLA-A*0201 on T2 cells [2],> 24 h
"WLSEKIFYV [SSX2 41-49 (K41W, A42L)]",EC50,HLA-A*0201 on T2 cells [1],4.47 µM
same,Relative affinity (1/RA),HLA-A*0201 on T2 cells [1],3.3
same,Stability (T1/2),HLA-A*0201 on T2 cells [2],> 24 h
"FVSEKLFSA [SSX2 41-49 (K41F, A42V, I46L, Y48S, V49A)]",EC50,HLA-A*0201 on T2 cells [4],6.2 µM
same,Relative affinity (1/RA),HLA-A*0201 on T2 cells [4],2.4
"YLSEKIFYV [SSX2 41-49 (K41Y, A42L)]",EC50,HLA-A*0201 on T2 cells [1],11.8 µM
same,Relative affinity (1/RA),HLA-A*0201 on T2 cells [1],1.2
same,Stability (T1/2),HLA-A*0201 on T2 cells [2],> 24 h
"FVSEKLFTV [SSX2 41-49 (K41F, A42V, I46L, Y48T)]",Stability (T1/2),HLA-A*0201 on T2 cells [3],24 h
same,EC50,HLA-A*0201 on T2 cells [4],5.67 µM
same,Relative affinity (1/RA),HLA-A*0201 on T2 cells [4],2.6
"FVSDKIFYV [SSX2 41-49 (K41F, A42V, E44D)]",EC50,HLA-A*0201 on T2 cells [4],13.2 µM
same,Relative affinity (1/RA),HLA-A*0201 on T2 cells [4],1.1
"FVS[Nva]KIFYV (also called FVS(Nva)KIFYV) [SSX2 41-49 (K41F, A42V, E44Nva)]",Stability (T1/2),HLA-A*0201 on T2 cells [3],> 24 h
same,EC50,HLA-A*0201 on T2 cells [4],3.8 µM
same,Relative affinity (1/RA),HLA-A*0201 on T2 cells [4],3.9
"FVSEKIF[Phg]V (also called FVSEKIF(Phg)V) [SSX2 41-49 (K41F, A42V, Y48Phg)]",Stability (T1/2),HLA-A*0201 on T2 cells [3],> 24 h
same,EC50,HLA-A*0201 on T2 cells [4],5.85 µM
same,Relative affinity (1/RA),HLA-A*0201 on T2 cells [4],2.5
"XLPSIPVHPI (aminobutyric acid (Abu) at P1, also called G288Abu) [PSMA288-297 analog with Abu at P1]",binding result,[5],binds
"FVSEKIFXV (4-fluorophenylalanine (Phe(4-F)) at position 48 (P8), also called FVSEKIF(Phe-4F)V) [SSX2 41-49 (K41F, A42V, Y48(Phe-4F))]",Stability (T1/2),HLA-A*0201 on T2 cells [3],24 h
same,EC50,HLA-A*0201 on T2 cells [4],10.6 µM
same,Relative affinity (1/RA),HLA-A*0201 on T2 cells [4],1.4
"FVSEK[Nva]FYV (also called FVSEK(Nva)FYV) [SSX2 41-49 (K41F, A42V, I46Nva)]",Stability (T1/2),HLA-A*0201 on T2 cells [3],> 24 h
same,EC50,HLA-A*0201 on T2 cells [4],6.21 µM
same,Relative affinity (1/RA),HLA-A*0201 on T2 cells [4],2.4
G[Abu]PSIPVHPI [PSMA288-297 analog with Abu at P2],binding result,[6],binds
[Phe(4-NO2)]ASEKIFYV (also called para-nitrophenylalanine analog) [SSX2 41-49 (K41(Phe-4N02))],EC50,HLA-A*0201 on T2 cells [7],12.8 µM
same,Relative affinity (1/RA),HLA-A*0201 on T2 cells [7],1.1
"FVS[Nle]KIFYV (also called FVS(Nle)KIFYV) [SSX2 41-49 (K41F, A42V, E44Nle)]",EC50,HLA-A*0201 on T2 cells [4],13 µM
same,Relative affinity (1/RA),HLA-A*0201 on T2 cells [4],1.1
"XLPSIPVHPI (sarkosine (Sar, N-methylglycine) at P1) [PSMA288-297 analog with Sar at P1]",binding result,[5],binds
"FVSEK[Nle]FYV (also called FVSEK(Nle)FYV) [SSX2 41-49 (K41F, A42V, I46Nle)]",EC50,HLA-A*0201 on T2 cells [4],12.8 µM
XASEKIFYV (β-(3-benzothienyl)-alanine at position 41 (P1)) [SSX2 41-49 (K41(b-(3-benzothienyl)Ala))],EC50,HLA-A*0201 on T2 cells [7],24.1 µM
same,Relative affinity (1/RA),HLA-A*0201 on T2 cells [7],0.6
ALPSIPVHPI [PSMA288-297 analog with Ala at P1],binding result,[5],binds
SLPSIPVHPI [PSMA288-297 analog with Ser at P1],binding result,[5],binds
GLPSIPVHSI [PSMA288-297 analog with Ser at PΩ-1],binding result,[5],binds
GQPSIPVHPI [PSMA288-297 analog with Gln at P2],binding result,[6],binds
GLPSIPVHLI [PSMA288-297 analog with Leu at PΩ-1],binding result,[5],binds
GLPSIPVHTI [PSMA288-297 analog with Thr at PΩ-1],binding result,[5],binds
GLPSIPVHAI [PSMA288-297 analog with Ala at PΩ-1],binding result,[5],binds
GIPSIPVHPI [PSMA288-297 analog with Ile at P2],binding result,[6],binds
GVPSIPVHPI [PSMA288-297 analog with Val at P2],binding result,[6],binds
GLPSIPVHPL [PSMA288-297 analog with Leu at PΩ],binding result,[6],binds
